The text below walks through data of patent US20220153834A1 (published 2022).

In general, IC50 refers to the concentration that inhibits the measured activity by half.

Substitutions are numbered along the chain they refer to.

In assay [1] the target is T1, Recombinant human TSG-6 (R&D Biosystems, catalog #2104-TS) (human, UniProt P98066 18-277). Description: inhibition of HA binding to TSG-6; HA binding.
Assay [2] addresses T1, Recombinant human TSG-6 (R&D …). Description: inhibition of HC-HA transesterase activity; HC-HA transesterase.

T1 sequence (P98066 18-277): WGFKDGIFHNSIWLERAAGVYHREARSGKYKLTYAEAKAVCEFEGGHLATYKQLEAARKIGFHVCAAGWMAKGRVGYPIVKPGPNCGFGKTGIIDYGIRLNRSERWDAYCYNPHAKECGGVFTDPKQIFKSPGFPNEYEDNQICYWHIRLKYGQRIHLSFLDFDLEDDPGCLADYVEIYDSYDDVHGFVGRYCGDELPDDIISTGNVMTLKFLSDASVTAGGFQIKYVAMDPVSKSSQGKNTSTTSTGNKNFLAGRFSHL

B1: 3C6 (antibody, V domains shown)
VH: EVQLQQSGPELVKPGASVKIPCKASGYTFTDYNMDWVKQSHGESLEWIGDIYPNNGGTIYNQKFKDKATLTVDKSSSTAYMELRSLTSEDNAVYYCARKTGTGFDYWGQGTTLTVSS
VL: QIVLSQSPAILSASPGEKVTMTCRARSSVIYMHWYQQKPGSSPKPWIYATFNLASGVPARFSGSGSGTSYSLTISRVEAEDAATYYCQQWSSNPPTFGSGTKLEIKR
With B1, the IC50 was 10 nM in assay [1] and 12 nM in assay [2].

B2: 1A9 (antibody, V domains shown)
VH: EVQLQQSGPELVKPGASVKISCKASGYTFTDYYMNWVKQSHEKSLEWIGDINPNNGGTSYNQKFMGKATLTVDKSSRTAYMELRSLTSEDSTVYYCARWGIYDRFTYWGQGTLVSVSA
VL: DIKMTQSPSSMYASLGERVTIACKASQDINSFLSWFQQKPGKSPKTLIYRANRLVDGVPSRFSGSGSGQDYSLTISSLEYEDMGIYYCLQYDEFPLTFGAGTKLELKR
As to B2, the IC50 in assay [1] stood at 32 nM; in assay [2] it was 375 nM.

B3: 1D7 (antibody, V domains shown)
VH: B2 VH with E42G, S59T, M65K, R77S, T92A, Y102F, L113V, S115T
VL: B2 VL with L15R, A22T
For the molecule B3, the concentration for half-maximal inhibition (IC50) in assay [1] stood at 47 nM; in assay [2], 1100 nM.

B4: 5B4 (antibody, V domains shown)
VH: QVQLQQPGAELVKPGASVKLSCKASDYTFTNYWMHWVKQRPGRGLEWIGRIDPSSGGAKYNEKFKSKATLTVDKPSSTAYMEFSSLTSEDSAVYYCVRSRYDYDGWFAYWGLGTLVTVSA
VL: DIVMTQAAPSVPVTPGESVSISCRSSKSLLHSNGNTYLYWFLQRPGQSPQLLIYRMSNLASGVPDRFSGSGSGTAFTLRISRVEAEDVGVYYCMQHLEYPFTFGGGTKLEIKR
Regarding B4, the half-maximal inhibitory concentration (IC50) in assay [1] was > 667 nM; in assay [2] it was 68 nM.

B5: 5D9 (antibody, V domains shown)
VH: QVQLQQSGAELARPGASVKLSCKASDDTFINYGINWVKQRTGQGLEWIGETFPSNGNTFYNEKFKGKATLTADRSSSTTYMELRSLTSEDAAVYFCARHSNLPYFDHWGQGSTLTVSS
VL: DIVMTQSPSSLSVSAGEKVTMSCKSSQSLLNSGNQKNYLAWYQQKPGQPPKLLIYGASTRESGVPERFTGSGSGTDFTLTISSVQAEDLAVYYCQNDHSYPFTFGGGTNLEIKR
Take B5: the IC50 in assay [1] is ~1400 nM; in assay [2], 4 nM.

B6: 5A5 (antibody, V domains shown)
VH: QVQLQQSGAELAKPGASVRLSCQASGYTFTTYWMHWVKQRPRQGLEWIGYIIPSSGYSKCHQKFKDKATLTADKSSNTASMQLSSLTYEDSAVYYCARSTSGYPYYFDYWGQGTTLTVSS
VL: ENVLTQSPAIMSASPGEKVTMTCSATSSVSYMHWYQQKSSTSPKLWIYDTSKLASGVPGRFSGSGSGNSYSLTISSMEAEDVATYYCFQGSWYPLTFGAGTKLELKR
In the case of B6, the half-inhibitory concentration (IC50) in assay [1] is > 667 nM; in assay [2], 8 nM.

B7: 3E1 (antibody, V domains shown)
VH: B6 VH with T31S, S58T, N77S, S80Y, Y109S
VL: B6 VL with K18R, Y31F
In the case of B7, the concentration for half-maximal inhibition (IC50) is > 667 nM in assay [1] and 10 nM in assay [2].

B8: anti-TSG-6 antibody of SEQ ID NO: 1 and SEQ ID NO: 2 (first entry of Table 1, clone name not printed) (antibody, V domains shown)
VH: QVRLQQSGAELAKPGASVKLSCKASGYTFTSYWMHWVKQRPGQGLEWIGYIIPSSGYTKNKQNFKDKATLTADKSSSTAYMQLSNLTYEDSAVYSCARSDGSYPYYFDYWGQGTTLTVSS
VL: B6 VL with T26S, W92G, A99S, L105I
Take B8: the 50% inhibitory concentration (IC50) was > 2000 nM in assay [1] and 19 nM in assay [2].

B9: 4F1 (antibody, V domains shown)
VH: EVKLVESGGGLVQPGGSLSLSCAASGFTFTDYYMSWVRQPPGKALEWLGFIRHKAKGYTAEYSASVKGRFTISRDNSQSILYLQMNALRAEDSATYYCARLYYYGSPHWYFDVWGTGTTVTVSS
VL: QIVLTQSPAIMSASPGEKVTMTCSASSSVSYMHWYQQKSGTSPKRWIYDTSKLASGVPARFSGSGSGTSYSLTISSMEAEDAATYYCQQWSSNPPTFGSGTELEIKR
In the case of B9, the IC50 is > 667 nM in assay [1] and 44 nM in assay [2].

B10: ID12 (antibody, V domains shown)
VH: QVQLQQSGPELVKPGASVKLSCKTSGYTFTSYDINWVKQRPGQGLEWIGWIYPSDGSTKFNEKFKGMATLTVDTSSSTAYMELHSLTSEDSTVYFCARGLWYYGGGVDYWGQGTSVTVSS
VL: DAVMTQTPLSLPVSLGDQASISCRSTQSLEDSNGNTYLNWYLQKPGQSPQLLIYRVSNRFSGVLDRFSGSGSGTDFTLKISRVEAEDLGVYFCLQVTHVPYTFGGGTKLEIKR
Turning to B10, the 50% inhibitory concentration (IC50) in assay [1] is > 667 nM; in assay [2], 36 nM.

B11: 4E4 (antibody, V domains shown)
VH: QVQLQQPGAELVKPGASVKLSCKASGYTFTSYWMHWVKQRPGQGLEWIGMIHPNSGSTNYNEKFKNKATLTVDKSSSTAYMQLSSLTSEDSAVYYCAPRMFDDYDDYWGQGTTLTVSS
VL: QIVLTQSPAIMSASLGERVTMTCTASSSVSSSYLHWYQQKPGSSPKLWIYSTSNLASGVPVRFSGSGSGTSYSLTISRMEAEDAATYYCHHYHRSPYTFGGGTKLEIKR
Turning to B11, the half-inhibitory concentration (IC50) in assay [1] was > 667 nM; in assay [2], 140 nM.

B12: 3E4 (antibody, V domains shown)
VH: QVQLQQPGAELVKPGASVKLSCKASGYTFTSQWMHWVKQRPGQGLEWIGMIHPNSGSTNNNEKFKSKATLTVDKSSSTAYMQLSSLTSEDSAVYYCTRWAMDYWGQGTSVTASS
VL: DVVMTQTPLSLPVSLGDLASISCRSSQSLVHSNGNTYLHWYLQKPGQSPKLLIFKVSNRFSGVPDRFSGSGSGTDFTLKISRVEAEDLGVYFCSQSTHVPWTFGGGTKLEIKR
B12: the IC50 in assay [1] was 290 nM; in assay [2] it was > 3000 nM.
